Positions count from the first letter of the chain named.

Consider twelve molecules from US20230340128A1 (Xencor, published 2023).

Assay [1] deals with T1, human mesothelin (MSLN) (human, UniProt Q13421 296-580, limits assumed).
T1 construct: Antigen of the Octet KD values
Nature of the assay: BLI (Octet), bsAb in 1+1 Fab-scFv-Fc format. For orientation: BLI is a label-free optical method that tracks binding on a fibre tip over time.

For assay [2], the target named is T1, human mesothelin (MSLN). Nature of the assay: KD quoted in the FIG. 25 legend; Octet (BLI) per FIGS. 20-21.
Assay [3] addresses T2, human CD28 (human, UniProt P10747 19-152, limits assumed).
T2 construct: also called Cluster of Differentiation 28; Tp44
Nature of the assay: label in the legend box: nominal affinity of the CD28 binding domain (paragraph 422 calls such label values KD); method not stated on the sheet.

Assay [4] deals with T1, human mesothelin (MSLN). In words: label in the legend box: nominal affinity of the MSLN binding domain (paragraph 422 calls such label values KD); method not stated on the sheet.
Assay [5] addresses T2, human CD28. In words: method not stated; Monovalent CD28 KD, table headed 1A7[CD28] H1.14_L1.71 (aka 37 nM).
The target of assay [6] is T1, human mesothelin (MSLN). In words: BLI (Octet), multiple concentrations, bsAb in 1+1 Fab-scFv-Fc format; lower table, column 'human MSLN (M)'.
For assay [7], the target named is T2, human CD28. In words: method not stated; Monovalent CD28 KD, table headed 1A7[CD28] H1_L1.71 (aka 180 nM).

B1: XENP32563 (bispecific antibody)
chain 1: QVQLVQSGAEVKKPGASVKVSCKASGYTFTSYWMHWVRQAPGQGLEWMGMIHPNSDNTIYYEKFQGRVTMTVDKSISTAYMELSRLRSDDTAVYYCAIIITPVVPKFDYWGQGTLVTVSSASTKGPSVFPLAPSSKSTSGGTAALGCLVKDYFPEPVTVSWNSGALTSGVHTFPAVLQSSGLYSLSSVVTVPSSSLGTQTYICNVNHKPSDTKVDKKVEPKSCDKTHTCPPCPAPPVAGPSVFLFPPKPKDTLMISRTPEVTCVVVDVKHEDPEVKFNWYVDGVEVHNAKTKPREEEYNSTYRVVSVLTVLHQDWLNGKEYKCKVSNKALPAPIEKTISKAKGQPREPQVYTLPPSREEMTKNQVSLTCDVSGFYPSDIAVEWESDGQPENNYKTTPPVLDSDGSFFLYSKLTVDKSRWEQGDVFSCSVMHEALHNHYTQKSLSLSPGK
chain 2: not shown
chain 3: DIVMTQSPDSLAVSLGERATINCKASHDVGTYVAWYQQKPGQSPKLLIYWASTRHTGVPDRFTGSGSGTDFTLTISSLQAEDVAVYFCQQYSSYPLTFGAGTKLEIKRTVAAPSVFIFPPSDEQLKSGTASVVCLLNNFYPREAKVQWKVDNALQSGNSQESVTEQDSKDSTYSLSSTLTLSKADYEKHKVYACEVTHQGLSSPVTKSFNRGEC
What is called Kd is the free concentration of one partner at which half of the binding sites on the other are occupied at equilibrium, for simple one-to-one binding. Low readings indicate tighter binding, high ones weaker binding. The koff is a measure of how fast the partners let go of each other. Read a low koff as slow dissociation. The kon is the second-order rate constant of association. In assay [1], B1 yielded a Kd of 12.8 nM, a Response of 0.898, a koff of 0.00672 s⁻¹ and a kon of 527000 M⁻¹ s⁻¹. Also, in assay [2], the Kd was about 12.8 nM.

B2: XENP32948 (bispecific antibody)
chain 1: B1 chain 1 with E62Q
chain 2: QVQLVQSGAEVKKPGASVKVSCKASGYTFTSYWMHWVRQAPGQGLEWMGMIHPNSDNTIYYQKFQGRVTMTVDKSISTAYMELSRLRSDDTAVYYCAIIITPVVPKFDYWGQGTLVTVSSASTKGPSVFPLAPSSKSTSGGTAALGCLVKDYFPEPVTVSWNSGALTSGVHTFPAVLQSSGLYSLSSVVTVPSSSLGTQTYICNVNHKPSNTKVDKKVEPKSCGGGGSGGGGSQAVVTQEPSLTVSPGGTVTLTCGSSTGAVTTSNYANWVQQKPGKSPRGLIGGTNKRAPGVPARFSGSLLGGKAALTISGAQPEDEADYYCALWYSNHWVFGGGTKLTVLGKPGSGKPGSGKPGSGKPGSEVQLVESGGGLVQPGGSLRLSCAASGFTFSTYAMNWVRQAPGKGLEWVGRIRSKANNYATYYADSVKGRFTISRDDSKNTLYLQMNSLRAEDTAVYYCVRHGNFGDSYVSWFAYWGQGTLVTVSSGGGGSGGGGSKTHTCPPCPAPPVAGPSVFLFPPKPKDTLMISRTPEVTCVVVDVKHEDPEVKFNWYVDGVEVHNAKTKPREEQYNSTYRVVSVLTVLHQDWLNGKEYKCKVSNKALPAPIEKTISKAKGQPREPQVYTLPPSREQMTKNQVKLTCLVKGFYPSDIAVEWESNGQPENNYKTTPPVLDSDGSFFLYSKLTVDKSRWQQGNVFSCSVMHEALHNHYTQKSLSLSPGK
chain 3: B1 chain 3 with Y32S, S92Y
On to B2, for which the Kd in assay [2] worked out at 10.2 nM.

B3: XENP44471 (bispecific antibody)
heavy 1: B1 chain 1 with M50W, M430L, N436S
heavy 2: not shown
light 1: B1 chain 3 with Y32S
light 2: B1 chain 3 with Y32S
notes: also called XENP44471 MSLN (9 nM) x CD28 (180 nM) 2+1 Fab2-scFv-Fc
Take B3: the equilibrium dissociation constant (Kd) in assay [3] was determined as 180 nM; in assay [4], 9 nM.

B4: XENP44469 (bispecific antibody)
chain 1: B1 chain 1 with M430L, N436S
chain 2: not shown
chain 3: B1 chain 3 with Y32S
notes: also called 2+1 Fab2-scFv-Fc MSLN x CD28 bsAb
B4 showed a Kd in assay [5] of 580 nM.

B5: XENP32552 (bispecific antibody)
chain 1: B1 chain 1 with M50W
chain 2: not shown
chain 3: B1 chain 3 with Y32S
In assay [1], B5 displayed a Kd of 30 nM, a Response of 0.915, a koff of 0.0147 s⁻¹ and a kon of 491000 M⁻¹ s⁻¹. Moreover, the Kd in assay [6] is 9.2 nM.

B6: XENP44477 (bispecific antibody)
heavy: QVQLVQSGAEVKKPGASVKVSCKASGYTFTSYWMHWVRQAPGQGLEWMGWIHPNSDNTIYYEKFQGRVTMTVDKSISTAYMELSRLRSDDTAVYYCAIIITPVVPKFDYWGQGTLVTVSSASTKGPSVFPLAPSSKSTSGGTAALGCLVKDYFPEPVTVSWNSGALTSGVHTFPAVLQSSGLYSLSSVVTVPSSSLGTQTYICNVNHKPSDTKVDKKVEPKSCGGGGSGGGGSQVQLVQSGAEVKKPGASVKVSCKASGYTFTSYWMHWVRQAPGQGLEWMGWIHPNSDNTIYYEKFQGRVTMTVDKSISTAYMELSRLRSDDTAVYYCAIIITPVVPKFDYWGQGTLVTVSSASTKGPSVFPLAPSSKSTSGGTAALGCLVKDYFPEPVTVSWNSGALTSGVHTFPAVLQSSGLYSLSSVVTVPSSSLGTQTYICNVNHKPSDTKVDKKVEPKSCDKTHTCPPCPAPPVAGPSVFLFPPKPKDTLMISRTPEVTCVVVDVKHEDPEVKFNWYVDGVEVHNAKTKPREEEYNSTYRVVSVLTVLHQDWLNGKEYKCKVSNKALPAPIEKTISKAKGQPREPQVYTLPPSREEMTKNQVSLTCDVSGFYPSDIAVEWESDGQPENNYKTTPPVLDSDGSFFLYSKLTVDKSRWEQGDVFSCSVLHEALHSHYTQKSLSLSPGK
scFv-Fc: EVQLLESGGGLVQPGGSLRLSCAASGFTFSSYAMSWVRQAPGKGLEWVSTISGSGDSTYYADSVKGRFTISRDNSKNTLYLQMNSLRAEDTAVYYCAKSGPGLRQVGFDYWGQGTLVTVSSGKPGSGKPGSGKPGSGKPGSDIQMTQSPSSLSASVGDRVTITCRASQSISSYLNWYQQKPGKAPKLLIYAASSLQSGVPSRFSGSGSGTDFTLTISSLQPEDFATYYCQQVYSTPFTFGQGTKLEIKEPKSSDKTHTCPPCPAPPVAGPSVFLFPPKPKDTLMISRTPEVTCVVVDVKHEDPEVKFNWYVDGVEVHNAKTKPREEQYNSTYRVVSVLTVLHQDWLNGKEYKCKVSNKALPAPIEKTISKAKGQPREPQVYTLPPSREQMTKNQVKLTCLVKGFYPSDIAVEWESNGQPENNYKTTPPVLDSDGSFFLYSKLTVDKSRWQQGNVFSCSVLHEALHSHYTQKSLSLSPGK
light 1: B1 chain 3 with Y32S
light 2: B1 chain 3 with Y32S
notes: also called XENP44477 MSLN (9 nM) x CD28 (180 nM) 2+1 Fab2-Fc x scFv-Fc
B6: the Kd in assay [3] was 180 nM; in assay [4] it was 9 nM.

B7: XENP32567 (bispecific antibody)
chain 1: B1 chain 1
chain 2: not shown
chain 3: B1 chain 3 with Y32S, S92Y
In assay [1], B7 had a Kd of 15.3 nM, a Response of 0.953, an off-rate constant (koff) of 0.00887 s⁻¹ and a kon of 578000 M⁻¹ s⁻¹. The Kd in assay [6] came out at 3.9 nM.

B8: XENP44475 (bispecific antibody)
chain 1: B6 heavy with W50M, W283M
chain 2: not shown
chain 3: B1 chain 3 with Y32S
notes: also called 2+1 Fab2-Fc x scFv-Fc MSLN x CD28 bsAb
In assay [5], B8 returned a Kd of 740 nM.

B9: XENP39554 (bispecific antibody)
heavy: B1 chain 1 with M430L, N436S
scFv-Fc: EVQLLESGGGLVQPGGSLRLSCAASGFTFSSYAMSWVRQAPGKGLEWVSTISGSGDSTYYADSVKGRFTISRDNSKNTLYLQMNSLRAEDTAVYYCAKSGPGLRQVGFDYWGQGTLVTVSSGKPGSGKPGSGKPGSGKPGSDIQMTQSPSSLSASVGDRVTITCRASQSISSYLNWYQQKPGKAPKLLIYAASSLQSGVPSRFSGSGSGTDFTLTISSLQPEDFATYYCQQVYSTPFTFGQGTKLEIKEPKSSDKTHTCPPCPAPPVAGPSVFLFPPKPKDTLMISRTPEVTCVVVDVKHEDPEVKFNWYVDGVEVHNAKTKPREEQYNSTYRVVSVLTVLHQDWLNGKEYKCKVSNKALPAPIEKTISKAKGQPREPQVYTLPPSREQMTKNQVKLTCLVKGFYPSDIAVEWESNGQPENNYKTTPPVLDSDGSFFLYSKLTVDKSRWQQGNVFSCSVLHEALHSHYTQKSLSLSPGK
light: B1 chain 3 with Y32S
notes: also called H1_L1.71
In the case of B9, binding in assay [7] was characterised by a dissociation constant (Kd) of 200 nM.

B10: XENP44473 (bispecific antibody)
heavy 1: B1 chain 1 with M50W, M430L, N436S
heavy 2: not shown
light 1: B1 chain 3 with T31Q, Y32S
light 2: B1 chain 3 with T31Q, Y32S
notes: also called XENP44473 MSLN (90 nM) x CD28 (180 nM) 2+1 Fab2-scFv-Fc
On to B10, for which the figures for the Kd in assay [3] and in assay [4] were 180 nM and 90 nM, respectively.

B11: XENP44479 (bispecific antibody)
heavy: B6 heavy
scFv-Fc: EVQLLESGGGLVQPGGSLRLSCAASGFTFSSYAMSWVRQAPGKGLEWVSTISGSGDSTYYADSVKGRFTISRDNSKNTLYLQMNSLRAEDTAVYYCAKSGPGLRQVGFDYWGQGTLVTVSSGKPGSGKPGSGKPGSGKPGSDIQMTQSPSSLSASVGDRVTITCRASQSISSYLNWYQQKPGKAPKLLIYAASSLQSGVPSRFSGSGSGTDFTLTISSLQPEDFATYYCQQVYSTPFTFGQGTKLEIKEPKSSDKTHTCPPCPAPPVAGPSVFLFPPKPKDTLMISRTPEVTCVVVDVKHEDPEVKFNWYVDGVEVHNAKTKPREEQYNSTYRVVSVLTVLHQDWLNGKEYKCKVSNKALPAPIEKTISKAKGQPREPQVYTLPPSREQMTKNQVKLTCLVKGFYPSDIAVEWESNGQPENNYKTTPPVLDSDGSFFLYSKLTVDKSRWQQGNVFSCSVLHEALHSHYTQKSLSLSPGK
light 1: B1 chain 3 with T31Q, Y32S
light 2: B1 chain 3 with T31Q, Y32S
notes: also called XENP44479 MSLN (90 nM) x CD28 (180 nM) 2+1 Fab2-Fc x scFv-Fc
With B11, the Kd in assay [3] was found to be 180 nM; in assay [4] it was 90 nM.

B12: XENP39533 (bispecific antibody)
heavy 1: B1 chain 1 with M430L, N436S
heavy 2: not shown
light 1: B1 chain 3 with Y32S
light 2: B1 chain 3 with Y32S
notes: also called H1.14_L1.71
B12 displayed a Kd in assay [5] of 660 nM.
